# Source: patent publication US20140030725
# Experiments:
# [1] = tested on: CBS-HaloTag (CBS-HT) fusion protein (CBS variant 1A5 cloned into pFN19K HaloTag)
# [2] = tested on: HQ:CBS:HT (5xHQ tag:CBS variant 1A5:HaloTag), from pFNA:HQ(5x):CBS:HT(7)
# Chain of CBS-HaloTag (CBS-HT) fusion protein (CBS variant 1A5 cloned into pFN19K HaloTag) (chain, as listed by the source mutant): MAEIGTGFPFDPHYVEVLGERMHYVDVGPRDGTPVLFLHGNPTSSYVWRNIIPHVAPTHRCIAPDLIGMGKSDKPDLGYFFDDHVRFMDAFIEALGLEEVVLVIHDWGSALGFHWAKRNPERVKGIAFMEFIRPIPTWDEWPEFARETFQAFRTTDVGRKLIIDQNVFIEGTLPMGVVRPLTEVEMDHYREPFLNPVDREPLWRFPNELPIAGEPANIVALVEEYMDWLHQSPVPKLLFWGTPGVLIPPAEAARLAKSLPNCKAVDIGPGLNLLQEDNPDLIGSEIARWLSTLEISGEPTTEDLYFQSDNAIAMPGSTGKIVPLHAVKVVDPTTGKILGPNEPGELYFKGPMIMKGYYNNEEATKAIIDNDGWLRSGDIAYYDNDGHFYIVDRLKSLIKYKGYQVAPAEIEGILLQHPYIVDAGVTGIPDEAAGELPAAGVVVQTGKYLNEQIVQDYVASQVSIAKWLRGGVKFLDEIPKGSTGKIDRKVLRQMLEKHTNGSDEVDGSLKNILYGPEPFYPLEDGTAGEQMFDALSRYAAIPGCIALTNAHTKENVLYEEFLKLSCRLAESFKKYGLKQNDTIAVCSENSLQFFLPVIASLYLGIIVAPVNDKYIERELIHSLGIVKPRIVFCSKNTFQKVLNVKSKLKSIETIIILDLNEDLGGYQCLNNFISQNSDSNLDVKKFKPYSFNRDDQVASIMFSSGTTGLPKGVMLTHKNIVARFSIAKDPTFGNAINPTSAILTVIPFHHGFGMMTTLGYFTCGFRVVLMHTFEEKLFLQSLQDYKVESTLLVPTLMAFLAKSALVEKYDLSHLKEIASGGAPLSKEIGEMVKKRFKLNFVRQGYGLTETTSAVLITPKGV
substance,measurement,setting,value
"recombinant caspase-3 (E. coli KRX lysate, pTS1k:caspase-3(T/S))",INDUCED luminescence (5 min; CBS-HT from wheat germ extract + E. coli lysate containing caspase-3),[1],"4,626,173"
same,"INDUCED luminescence, CBS-HT immobilised on HaloLink RESIN",[1],"1,635,259"
same,"INDUCED luminescence, CBS-HT immobilised on HaloTag-ligand plate, 0 min",[1],"1,226"
same,"INDUCED luminescence, CBS-HT immobilised on HaloTag-ligand plate, 1 min",[1],"1,636"
same,"INDUCED luminescence, CBS-HT immobilised on HaloTag-ligand plate, 2 min",[1],"2,267"
same,"INDUCED luminescence, CBS-HT immobilised on HaloTag-ligand plate, 3 min",[1],"2,147"
same,"INDUCED luminescence, CBS-HT immobilised on HaloTag-ligand plate, 4 min",[1],"2,297"
same,"INDUCED luminescence, CBS-HT immobilised on HaloTag-ligand plate, 5 min",[1],"2,857"
same,"INDUCED luminescence, CBS-HT immobilised on HaloTag-ligand plate, 6 min",[1],"3,107"
same,"INDUCED luminescence, CBS-HT immobilised on HaloTag-ligand plate, 7 min",[1],"3,377"
same,"INDUCED luminescence, CBS-HT immobilised on HaloTag-ligand plate, 8 min",[1],"3,037"
same,"INDUCED luminescence, CBS-HT immobilised on HaloTag-ligand plate, 9 min",[1],"3,667"
same,"INDUCED luminescence, sample AS (HaloLink resin immobilisation experiment)",[1],"5,162,108"
same,"INDUCED luminescence, sample FT (HaloLink resin immobilisation experiment)",[1],"232,117"
same,RESPONSE (induced/basal luminescence; 5 min; CBS-HT from wheat germ extract),[1],441 fold
same,"RESPONSE, CBS-HT immobilised on HaloLink RESIN",[1],146 fold
same,"RESPONSE, CBS-HT immobilised on HaloTag-ligand plate, 0 min",[1],19 fold
same,"RESPONSE, CBS-HT immobilised on HaloTag-ligand plate, 1 min",[1],102 fold
same,"RESPONSE, CBS-HT immobilised on HaloTag-ligand plate, 2 min",[1],21 fold
same,"RESPONSE, CBS-HT immobilised on HaloTag-ligand plate, 3 min",[1],33 fold
same,"RESPONSE, CBS-HT immobilised on HaloTag-ligand plate, 4 min",[1],18 fold
same,"RESPONSE, CBS-HT immobilised on HaloTag-ligand plate, 5 min",[1],23 fold
same,"RESPONSE, CBS-HT immobilised on HaloTag-ligand plate, 6 min",[1],41 fold
same,"RESPONSE, CBS-HT immobilised on HaloTag-ligand plate, 7 min",[1],60 fold
same,"RESPONSE, CBS-HT immobilised on HaloTag-ligand plate, 8 min",[1],22 fold
same,"RESPONSE, CBS-HT immobilised on HaloTag-ligand plate, 9 min",[1],32 fold
same,"RESPONSE, sample AS (HaloLink resin immobilisation experiment)",[1],175 fold
same,"RESPONSE, sample FT (HaloLink resin immobilisation experiment)",[1],73 fold
same,"INDUCED luminescence, HisLink elution fraction E1",[2],"2,951,899"
same,"INDUCED luminescence, HisLink elution fraction E2",[2],"40,913,496"
same,"INDUCED luminescence, HisLink elution fraction E3",[2],"3,287,059"
same,"INDUCED luminescence, HisLink elution fraction E4",[2],"215,580"
same,"INDUCED luminescence, HisLink elution fraction E5",[2],"48,068"
same,"INDUCED luminescence, HisLink purification sample HSS",[2],"12,875,742"
same,"INDUCED luminescence, HisLink purification sample NSM",[2],"5,822,003"
same,"INDUCED luminescence, HisLink purification sample WASH",[2],"3,706,541"
same,"INDUCED luminescence, purified HQ:CBS:HT immobilised on HaloLink plate",[2],"661,597"
same,"RESPONSE, HisLink elution fraction E1",[2],699 fold
same,"RESPONSE, HisLink elution fraction E2",[2],212 fold
same,"RESPONSE, HisLink elution fraction E3",[2],178 fold
same,"RESPONSE, HisLink elution fraction E4",[2],191 fold
same,"RESPONSE, HisLink elution fraction E5",[2],178 fold
same,"RESPONSE, HisLink purification sample HSS",[2],43 fold
same,"RESPONSE, HisLink purification sample NSM",[2],33 fold
same,"RESPONSE, HisLink purification sample WASH",[2],479 fold
same,"RESPONSE, purified HQ:CBS:HT immobilised on HaloLink plate",[2],96 fold
